Assay results from patent US20210253724A1.

Tests used:
[1] = target: human CEACAM5 (CEA) on cells (human) (UniProt P06731); assay: flow cytometry on CHO-k1-humanCEACAM5 clone 11
[2] = target: human CEACAM5 (CEA) on cells (human) (UniProt P06731); assay: flow cytometry on CHO-k1-humanCEACAM5 clone 13
[3] = target: human 4-1BB (CD137) on Jurkat-hu4-1BB-NFκB-luc2 reporter cells (human) (UniProt Q07011); assay: cell-based or functional assay; parameters: AUC of NFκB-luciferase activation curve, no FAP+ cells / AUC of NFκB-luciferase activation curve, with WM-266-4 cells: unit not given beside the values
[4] = target: cynomolgus monkey CEACAM5 on CHO-k1-cynoCEACAM5 clone 8 cells (cynomolgus monkey); assay: flow cytometry on CHO-k1-cynoCEACAM5 clone 8; parameters: unit not given beside the values
[5] = target: human 4-1BB (CD137) on Jurkat-hu4-1BB-NFκB-luc2 reporter cells (human) (UniProt Q07011); assay: cell-based or functional assay; parameters: AUC of NFκB-luciferase activation curve, no CEA+ cells / AUC of NFκB-luciferase activation curve, with CHO-k1-cynoCEACAM5 clone 8: unit not given beside the values
[6] = target: human CEACAM5 (CEA) on cells (human) (UniProt P06731); assay: flow cytometry on MKN45 cells; parameters: unit not given beside the values
[7] = target: human FAP on NIH/3T3-huFAP clone 19 cells (human) (UniProt Q12884); assay: flow cytometry on NIH/3T3-huFAP clone 19 cells
[8] = target: human CEACAM5 (CEA) on cells (human) (UniProt P06731); assay: flow cytometry on CHO-k1-humanCEACAM5 clone 12

Chain of human CEACAM5 (CEA) on cells (human) (P06731 35-685 E398K limits assumed): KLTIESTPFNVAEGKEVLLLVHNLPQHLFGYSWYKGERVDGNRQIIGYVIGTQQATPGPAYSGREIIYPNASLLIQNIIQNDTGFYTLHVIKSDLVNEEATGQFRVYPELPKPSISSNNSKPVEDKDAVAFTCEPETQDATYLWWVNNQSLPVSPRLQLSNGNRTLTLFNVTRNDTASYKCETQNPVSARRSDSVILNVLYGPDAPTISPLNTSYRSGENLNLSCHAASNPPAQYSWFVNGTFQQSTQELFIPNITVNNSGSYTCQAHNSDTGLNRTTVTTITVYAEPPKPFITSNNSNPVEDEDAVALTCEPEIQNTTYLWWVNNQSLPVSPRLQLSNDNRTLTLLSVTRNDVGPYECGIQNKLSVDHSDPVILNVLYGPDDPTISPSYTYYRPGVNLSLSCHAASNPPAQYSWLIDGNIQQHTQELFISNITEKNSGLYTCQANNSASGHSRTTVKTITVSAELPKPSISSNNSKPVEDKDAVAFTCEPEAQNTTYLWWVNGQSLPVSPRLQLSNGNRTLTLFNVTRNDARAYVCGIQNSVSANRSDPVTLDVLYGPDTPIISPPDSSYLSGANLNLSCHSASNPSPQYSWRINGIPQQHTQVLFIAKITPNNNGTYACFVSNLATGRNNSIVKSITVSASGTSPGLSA

With “Untargeted (DP47) huIgG1 P329GLALA (antibody)” the AUC [1] was 746, the AUC [2] was 1870 and the AUC of NFκB-luciferase activation curve, no FAP+ cells [3] was 286. For the same substance, the AUC of NFκB-luciferase activation curve, with NIH/3T3-huFAP clone 19 cells [3] was 521, the AUC of NFκB-luciferase activation curve, with WM-266-4 cells [3] was 384 and the AUC [4] was 219. The AUC of NFκB-luciferase activation curve, no CEA+ cells [5] was 47, the AUC of NFκB-luciferase activation curve, with CHO-k1-cynoCEACAM5 clone 8 [5] was 77 and the AUC of NFκB-luciferase activation curve, with CHO-k1-humanCEACAM5 clone 11 [5] was 264. The AUC of NFκB-luciferase activation curve, with CHO-k1-humanCEACAM5 clone 12 [5] was 313, the AUC [6] was 420 and the AUC [7] was 362. For the same substance, the EC50 [7] was 2.29 nM and the AUC [8] was 1190.
